Reference: patent publication US20190177370A1 (TOKYO UNIVERSITY OF PHARMACY AND LIFE SCIENCES, published 2019)
Square brackets hold non-standard residues; d marks the D form. Primed or numbered codes have the meaning given here. m‑dPEG(4) = m-dPEG(4) acid, coupled to Acp, with Acp forms R^111 of Formula (4); 2Nal = N[C@@H](Cc1ccc2ccccc2c1)C(=O)O; Chg = N[C@H](C(=O)O)C1CCCCC1; Ahx = NCCCCCC(=O)O

T1: myostatin (UniProt O14793 267-375, limits assumed)
T1 sequence (looked up): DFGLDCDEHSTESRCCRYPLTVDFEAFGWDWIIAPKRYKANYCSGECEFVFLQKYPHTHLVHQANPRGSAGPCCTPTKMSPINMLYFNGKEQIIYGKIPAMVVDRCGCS


Molecular target: T1, myostatin
Experiment: cell-based or functional assay

Row | Binder | myostatin inhibitory activity at 1 µM (luciferase reporter assay) | myostatin inhibitory activity at 0.3 µM (luciferase reporter assay)
1 | {m‑dPEG(4)-Ahx}-YYIEWIKIQIISKLRL-NH2 [PDM-29] | ≥ 40 % inhibition | 
2 | {m‑dPEG(4)-Ahx}-WWIEWIKIQIISKLRL-NH2 [PDM-30] | ≥ 40 % inhibition | 
3 | H-WYIRWIK[Chg]QIWSK[Chg]RL-NH2 (SMILES CC[C@H](C)[C@H](NC(=O)[C@H](CCC(N)=O)NC(=O)[C@@H](NC(=O)[C@H](CCCCN)NC(=O)[C@@H](NC(=O)[C@H](Cc1c[nH]c2ccccc12)NC(=O)[C@H](CCCNC(=N)N)NC(=O)[C@@H](NC(=O)[C@H](Cc1ccc(O)cc1)NC(=O)[C@@H](N)Cc1c[nH]c2ccccc12)[C@@H](C)CC)[C@@H](C)CC)C1CCCCC1)C(=O)N[C@@H](Cc1c[nH]c2ccccc12)C(=O)N[C@@H](CO)C(=O)N[C@@H](CCCCN)C(=O)N[C@H](C(=O)N[C@@H](CCCNC(=N)N)C(=O)N[C@@H](CC(C)C)C(N)=O)C1CCCCC1) [nPDM-66] | ≥ 40 % inhibition | ≥ 40 % inhibition
4 | H-WYIRWIK[Chg]QIWSR[Chg]RL-NH2 (SMILES CC[C@H](C)[C@H](NC(=O)[C@H](CCC(N)=O)NC(=O)[C@@H](NC(=O)[C@H](CCCCN)NC(=O)[C@@H](NC(=O)[C@H](Cc1c[nH]c2ccccc12)NC(=O)[C@H](CCCNC(=N)N)NC(=O)[C@@H](NC(=O)[C@H](Cc1ccc(O)cc1)NC(=O)[C@@H](N)Cc1c[nH]c2ccccc12)[C@@H](C)CC)[C@@H](C)CC)C1CCCCC1)C(=O)N[C@@H](Cc1c[nH]c2ccccc12)C(=O)N[C@@H](CO)C(=O)N[C@@H](CCCNC(=N)N)C(=O)N[C@H](C(=O)N[C@@H](CCCNC(=N)N)C(=O)N[C@@H](CC(C)C)C(N)=O)C1CCCCC1) [nPDM-70] |  | ≥ 40 % inhibition
5 | H-YYIR[2Nal]IKIQIWSKLRL-NH2 (SMILES CC[C@H](C)[C@H](NC(=O)[C@H](CCC(N)=O)NC(=O)[C@@H](NC(=O)[C@H](CCCCN)NC(=O)[C@@H](NC(=O)[C@H](Cc1ccc2ccccc2c1)NC(=O)[C@H](CCCNC(=N)N)NC(=O)[C@@H](NC(=O)[C@H](Cc1ccc(O)cc1)NC(=O)[C@@H](N)Cc1ccc(O)cc1)[C@@H](C)CC)[C@@H](C)CC)[C@@H](C)CC)C(=O)N[C@@H](Cc1c[nH]c2ccccc12)C(=O)N[C@@H](CO)C(=O)N[C@@H](CCCCN)C(=O)N[C@@H](CC(C)C)C(=O)N[C@@H](CCCNC(=N)N)C(=O)N[C@@H](CC(C)C)C(N)=O) [nPDM-69] | ≥ 40 % inhibition | ≥ 40 % inhibition
6 | H-AWYIRWIKIQIWSKLRL-NH2 [A-nPDM-55/E31R] |  | ≥ 40 % inhibition
7 | H-WYFRWIKIQIWSKLRL-NH2 [nPDM-67] | ≥ 40 % inhibition | 
8 | H-WYIRWIKIQIWSK[Chg]RL-NH2 (SMILES CC[C@H](C)[C@H](NC(=O)[C@H](CCC(N)=O)NC(=O)[C@@H](NC(=O)[C@H](CCCCN)NC(=O)[C@@H](NC(=O)[C@H](Cc1c[nH]c2ccccc12)NC(=O)[C@H](CCCNC(=N)N)NC(=O)[C@@H](NC(=O)[C@H](Cc1ccc(O)cc1)NC(=O)[C@@H](N)Cc1c[nH]c2ccccc12)[C@@H](C)CC)[C@@H](C)CC)[C@@H](C)CC)C(=O)N[C@@H](Cc1c[nH]c2ccccc12)C(=O)N[C@@H](CO)C(=O)N[C@@H](CCCCN)C(=O)N[C@H](C(=O)N[C@@H](CCCNC(=N)N)C(=O)N[C@@H](CC(C)C)C(N)=O)C1CCCCC1) [nPDM-65] | ≥ 40 % inhibition | ≥ 40 % inhibition

Continued, values first:

Row | myostatin inhibitory activity at 1 µM (luciferase reporter assay) | myostatin inhibitory activity at 0.3 µM (luciferase reporter assay) | Binder
9 |  | ≥ 40 % inhibition | H-WYIRWIR[Chg]PIWSR[Chg]RL-NH2 (SMILES CC[C@H](C)[C@H](NC(=O)[C@H](Cc1ccc(O)cc1)NC(=O)[C@@H](N)Cc1c[nH]c2ccccc12)C(=O)N[C@@H](CCCNC(=N)N)C(=O)N[C@@H](Cc1c[nH]c2ccccc12)C(=O)N[C@H](C(=O)N[C@@H](CCCNC(=N)N)C(=O)N[C@H](C(=O)N1CCC[C@H]1C(=O)N[C@H](C(=O)N[C@@H](Cc1c[nH]c2ccccc12)C(=O)N[C@@H](CO)C(=O)N[C@@H](CCCNC(=N)N)C(=O)N[C@H](C(=O)N[C@@H](CCCNC(=N)N)C(=O)N[C@@H](CC(C)C)C(N)=O)C1CCCCC1)[C@@H](C)CC)C1CCCCC1)[C@@H](C)CC) [nPDM-76]
10 |  | ≥ 40 % inhibition | H-WYIRWIR[Chg]QIWSR[Chg]PL-NH2 [nPDM-73]
11 |  | ≥ 40 % inhibition | H-WYIRWIR[Chg]QIWSR[Chg]RL-NH2 (SMILES CC[C@H](C)[C@H](NC(=O)[C@H](CCC(N)=O)NC(=O)[C@@H](NC(=O)[C@H](CCCNC(=N)N)NC(=O)[C@@H](NC(=O)[C@H](Cc1c[nH]c2ccccc12)NC(=O)[C@H](CCCNC(=N)N)NC(=O)[C@@H](NC(=O)[C@H](Cc1ccc(O)cc1)NC(=O)[C@@H](N)Cc1c[nH]c2ccccc12)[C@@H](C)CC)[C@@H](C)CC)C1CCCCC1)C(=O)N[C@@H](Cc1c[nH]c2ccccc12)C(=O)N[C@@H](CO)C(=O)N[C@@H](CCCNC(=N)N)C(=O)N[C@H](C(=O)N[C@@H](CCCNC(=N)N)C(=O)N[C@@H](CC(C)C)C(N)=O)C1CCCCC1) [nPDM-72]
12 |  | ≥ 40 % inhibition | H-WYIRWIR[Chg]QIWPR[Chg]RL-NH2 (SMILES CC[C@H](C)[C@H](NC(=O)[C@H](Cc1ccc(O)cc1)NC(=O)[C@@H](N)Cc1c[nH]c2ccccc12)C(=O)N[C@@H](CCCNC(=N)N)C(=O)N[C@@H](Cc1c[nH]c2ccccc12)C(=O)N[C@H](C(=O)N[C@@H](CCCNC(=N)N)C(=O)N[C@H](C(=O)N[C@@H](CCC(N)=O)C(=O)N[C@H](C(=O)N[C@@H](Cc1c[nH]c2ccccc12)C(=O)N1CCC[C@H]1C(=O)N[C@@H](CCCNC(=N)N)C(=O)N[C@H](C(=O)N[C@@H](CCCNC(=N)N)C(=O)N[C@@H](CC(C)C)C(N)=O)C1CCCCC1)[C@@H](C)CC)C1CCCCC1)[C@@H](C)CC) [nPDM-75]
13 |  | ≥ 40 % inhibition | H-WYIRWIR[Chg]QIWSK[Chg]RL-NH2 (SMILES CC[C@H](C)[C@H](NC(=O)[C@H](CCC(N)=O)NC(=O)[C@@H](NC(=O)[C@H](CCCNC(=N)N)NC(=O)[C@@H](NC(=O)[C@H](Cc1c[nH]c2ccccc12)NC(=O)[C@H](CCCNC(=N)N)NC(=O)[C@@H](NC(=O)[C@H](Cc1ccc(O)cc1)NC(=O)[C@@H](N)Cc1c[nH]c2ccccc12)[C@@H](C)CC)[C@@H](C)CC)C1CCCCC1)C(=O)N[C@@H](Cc1c[nH]c2ccccc12)C(=O)N[C@@H](CO)C(=O)N[C@@H](CCCCN)C(=O)N[C@H](C(=O)N[C@@H](CCCNC(=N)N)C(=O)N[C@@H](CC(C)C)C(N)=O)C1CCCCC1) [nPDM-71]
